Data as given in patent publication US20220227814A1 (NEVADA RESEARCH AND INNOVATION, published 2022).
Bridge positions count the residues as written; N and C are the ends. Square brackets hold non-standard residues; d marks the D form. Ends that are not written are not given here. Dap = NC[C@H](N)C(=O)O

Assays:
Assay in all cases: cell-based or functional assay
ComD1 receptor [1] = biological target: T1, ComD1 receptor (Streptococcus pneumoniae)
ComD1 receptor [2] = biological target: T1, ComD1 receptor; remark: listed apart in the source
ComD2 receptor [3] = biological target: T2, ComD2 receptor (Streptococcus pneumoniae)
ComD2 receptor [4] = biological target: T2, ComD2 receptor; remark: listed apart in the source
ComD2 receptor [5] = biological target: T2, ComD2 receptor; remark: listed apart in the source
ComD1 receptor [6] = biological target: T1, ComD1 receptor; remark: listed apart in the source

EMRLSKFFRDFILQRKK [CSP1 (competence stimulating peptide 1)]
EC50 (reporter strain) (ComD1 receptor [1]): 10.3 nM
EC50 (ComD1 EC50/IC50; β-gal reporter) (ComD1 receptor [2]): 10.3 nM

EMRLSAFFRDFILQRKK [CSP1-K6A]
EC50 (ComD2 EC50/IC50; β-gal reporter) (ComD2 receptor [3]): 24 nM
EC50 (ComD1 EC50/IC50; β-gal reporter) (ComD1 receptor [2]): 51 nM

AMRLSKFFRDFILQRKK [CSP1-E1A]
EC50/IC50 (kind not distinguishable; β-gal reporter) (ComD2 receptor [3]): > 10000 nM
IC50 (ComD1 EC50/IC50; β-gal reporter) (ComD1 receptor [2]): 85.7 nM

AMRLS[Dap]FFREFILQR (lactam 6-10) [CSP1-E1A-des-K16K17-cyc(Dap6E10)]
IC50 (reporter strain) (ComD2 receptor [4]): 67.2 nM
IC50 (reporter strain) (ComD1 receptor [1]): 7.57 nM
IC50 (ComD2 EC50/IC50; β-gal reporter) (ComD2 receptor [3]): 67.2 nM
IC50 (ComD1 EC50/IC50; β-gal reporter) (ComD1 receptor [2]): 7.57 nM
fold inhibition potency compared to CSP1-E1A-cyc(Dap6E10) (ComD2 receptor [5]): 3 fold
fold inhibition potency compared to CSP1-E1A-cyc(Dap6E10) (ComD1 receptor [6]): ~10 fold

EMRISRIIL[dD]FLFLRKK [CSP2-d10]
EC50 (ComD2 EC50/IC50; β-gal reporter) (ComD2 receptor [3]): 2.86 nM
EC50 (ComD1 EC50/IC50; β-gal reporter) (ComD1 receptor [2]): 513 nM

EMRLSXFFREFILQRKK (Dab at position 6; side chain-to-side chain lactam between Dab6 and Glu10) [CSP1-cyc(Dab6E10)]
EC50 (reporter strain) (ComD2 receptor [4]): 31.4 nM
EC50 (reporter strain) (ComD1 receptor [1]): 12.2 nM
fold potency compared to CSP1-cyc(Orn6D10) (ComD1 receptor [6]): 10 fold
maximal induction of comX compared to CSP1 (ComD1 receptor [6]): 100%

AMRLS[Dap]FFREFILQRKK (lactam 6-10) [CSP1-E1A-cyc(Dap6E10)]
IC50 (reporter strain) (ComD2 receptor [4]): 182 nM
IC50 (reporter strain) (ComD1 receptor [1]): 75.8 nM
IC50 (ComD2 EC50/IC50; β-gal reporter) (ComD2 receptor [3]): 182 nM
IC50 (ComD1 EC50/IC50; β-gal reporter) (ComD1 receptor [2]): 75.8 nM
fold inhibition potency compared to CSP2-E1Ad10 (ComD2 receptor [5]): 3 fold

B1: CSP1-cyc(Orn6E10) (peptide)
peptide: EMRLSXFFREFILQRKK
modifications: Orn (ornithine) at position 6; side chain-to-side chain lactam between Orn6 and Glu10
EC50 (reporter strain) (ComD2 receptor [4]): > 1000 nM
EC50 (reporter strain) (ComD1 receptor [1]): 422 nM

EMRLSXFFRDFILQRKK (Dap at position 6; side chain-to-side chain lactam between Dap6 and Asp10) [CSP1-cyc(Dap6D10)]
EC50 (reporter strain) (ComD2 receptor [4]): > 1000 nM
EC50 (reporter strain) (ComD1 receptor [1]): 435 nM

EMRLSXFFRDFILQRKK (Dab at position 6; side chain-to-side chain lactam between Dab6 and Asp10) [CSP1-cyc(Dab6D10)]
EC50 (reporter strain) (ComD2 receptor [4]): > 1000 nM
EC50 (reporter strain) (ComD1 receptor [1]): 59.5 nM

B2: CSP1-cyc(Orn6D10) (peptide)
peptide: EMRLSXFFRDFILQRKK
modifications: Orn (ornithine) at position 6; side chain-to-side chain lactam between Orn6 and Asp10
EC50 (reporter strain) (ComD2 receptor [4]): > 1000 nM
EC50 (reporter strain) (ComD1 receptor [1]): 193 nM
fold decrease in fold potency compared to CSP1-cyc(Dab6E10) and CSP1-cyc(Dap6E10) (ComD2 receptor [5]): > 30 fold
maximal induction of comX compared to CSP1 (ComD1 receptor [6]): 100%

AMRISRIIL[dD]FLFLRKK [CSP2-E1Ad10]
IC50 (ComD2 EC50/IC50; β-gal reporter) (ComD2 receptor [3]): 56.5 nM
EC50/IC50 (kind not distinguishable; β-gal reporter) (ComD1 receptor [2]): > 1000 nM

EMRLSKFFREFILQRKK (lactam 6-10) [CSP1-cyc(K6E10)]
EC50 (reporter strain) (ComD2 receptor [4]): > 1000 nM
EC50 (reporter strain) (ComD1 receptor [1]): 350 nM

AMRLSXFFREFILQRKK (Dab at position 6; side chain-to-side chain lactam between Dab6 and Glu10) [CSP1-E1A-cyc(Dab6E10)]
EC50/IC50 (kind not distinguishable; reporter strain) (ComD2 receptor [4]): > 1000 nM
IC50 (reporter strain) (ComD1 receptor [1]): 173 nM
EC50/IC50 (kind not distinguishable; β-gal reporter) (ComD2 receptor [3]): > 1000 nM
IC50 (ComD1 EC50/IC50; β-gal reporter) (ComD1 receptor [2]): 173 nM

EMRLSKFFRDFILDRKK (lactam 6-14) [CSP1-cyc(K6D14)]
EC50 (reporter strain) (ComD2 receptor [4]): > 1000 nM
EC50 (reporter strain) (ComD1 receptor [1]): > 1000 nM

EMRLSKFFRDFILQRKK (lactam 6-10) [CSP1-cyc(K6D10)]
EC50 (reporter strain) (ComD1 receptor [1]): 258 nM
maximal induction of comX compared to CSP1 (ComD1 receptor [6]): 44%

EMRLSKFFDDFILQRKK (lactam 6-9) [CSP1-cyc(K6D9)]
EC50 (reporter strain) (ComD2 receptor [4]): 528 nM
EC50 (reporter strain) (ComD1 receptor [1]): > 1000 nM

EMRLSKFFDDFILQRKK [CSP1 with Arg9 replaced with Asp (linear)]
fold reduction in potency against CSP1 (ComD1 receptor [6]): > 100 fold

EMRLSXFFREFILQRKK (Dap at position 6; side chain-to-side chain lactam between Dap6 and Glu10) [CSP1-cyc(Dap6E10)]
EC50 (reporter strain) (ComD2 receptor [4]): 13.1 nM
EC50 (reporter strain) (ComD1 receptor [1]): 14.6 nM
fold potency compared to CSP2 (ComD2 receptor [5]): ~4 fold
fold potency compared to CSP1-cyc(Orn6D10) (ComD1 receptor [6]): 10 fold
maximal induction of comX compared to CSP1 (ComD1 receptor [6]): 100%

EMRISRIILDFLFLRKK [CSP2 (competence stimulating peptide 2)]
EC50 (reporter strain) (ComD2 receptor [4]): 50.7 nM
EC50 (reporter strain) (ComD1 receptor [1]): 1650 nM
EC50 (ComD2 EC50/IC50; β-gal reporter) (ComD2 receptor [3]): 50.7 nM
EC50 (ComD1 EC50/IC50; β-gal reporter) (ComD1 receptor [2]): 1650 nM

EMRLSKFFRKFILDRKK (lactam 10-14) [CSP1-cyc(K10D14)]
EC50 (reporter strain) (ComD1 receptor [1]): 257 nM
